Source: publication PMC7954794, “Protein context shapes the specificity of SH3 domain-mediated interactions in vivo” (Nature Communications, 2021)

System: PPIs identified as affected by the SH3 domain deletions
Assay: Liquid DHFR-PCA low-throughput validation of PPIs affected by SH3 deletion (Fig. S1D-E)
Assay type: cell-based, Saccharomyces cerevisiae
Conditions: label = prey, liquid DHFR-PCA, prey _1 = lost, _2 = gained in screen
Procedure, shortened: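 Yeast diploids from DHFR-PCA mating grown 48 h in synthetic complete MSG medium pH 6.0 with NAT and HPH, normalized to 1 OD and diluted to 0.1 OD in liquid PCA selection medium. Growth followed by OD every 15 min for 72 h at 30 °C.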

B1: YLR332W_1 (protein, UniProt P36027 26-376, looked up)
Cell wall integrity sensor …: QFFVQSSSSNSSAVSTARSSVSRVSSSSSILSSSMVSSSSADSSSLTSSTSSRSLVSHTSSSTSIASISFTSFSFSSDSSTSSSSSASSDSSSSSSFSISSTSATSESSTSSTQTSTSSSSSLSSTPSSSSSPSTITSAPSTSSTPSTTAYNQGSTITSIINGKTILSNHYTTVTYTPSATADSSNKSKSSGLSKKNRNIVIGCVVGIGVPLILVILALIYMFCIQSSRTDFIDSDGKVVTAYRANKFTKWWYMLLGKKVSDEYHSDSPLGGSASSAGGLDLDEADDVMEQSSLFDVRIRDSDSVLPNANTADHNNTNSGGEPINSSVASNDIIEEKFYDEQGNELSPRNY
Bait CDC25
  Ratio (Deletedscore / WTscore): 0.4625
Bait NBP2
  Ratio (Deletedscore / WTscore): 0.9277

B2: YGR037C_1 (protein, UniProt P31787 1-87, looked up)
Acyl-CoA-binding protein: MVSQLFEEKAKAVNELPTKPSTDELLELYALYKQATVGDNDKEKPGIFNMKDRYKWEAWENLKGKSQEDAEKEYIALVDQLIAKYSS
Bait LSB1
  Ratio (Deletedscore / WTscore): 1.041

B3: YLR258W_2 (protein, UniProt P27472 1-705, looked up)
Glycogen [starch] synthase …: MSRDLQNHLLFETATEVANRVGGIYSVLKSKAPITVAQYKDHYHLIGPLNKATYQNEVDILDWKKPEAFSDEMRPVQHALQTMESRGVHFVYGRWLIEGAPKVILFDLDSVRGYSNEWKGDLWSLVGIPSPENDFETNDAILLGYTVAWFLGEVAHLDSQHAIVAHFHEWLAGVALPLCRKRRIDVVTIFTTHATLLGRYLCASGSFDFYNCLESVDVDHEAGRFGIYHRYCIERAAAHSADVFTTVSQITAFEAEHLLKRKPDGILPNGLNVIKFQAFHEFQNLHALKKEKINDFVRGHFHGCFDFDLDNTLYFFIAGRYEYKNKGADMFIEALARLNYRLKVSGSKKTVVAFIVMPAKNNSFTVEALKGQAEVRALENTVHEVTTSIGKRIFDHAIRYPHNGLTTELPTDLGELLKSSDKVMLKRRILALRRPEGQLPPIVTHNMVDDANDLILNKIRQVQLFNSPSDRVKMIFHPEFLNANNPILGLDYDEFVRGCHLGVFPSYYEPWGYTPAECTVMGVPSITTNVSGFGAYMEDLIETNQAKDYGIYIVDRRFKAPDESVEQLVDYMEEFVKKTRRQRINQRNRTERLSDLLDWKRMGLEYVKARQLALRRGYPDQFRELVGEELNDSNMDALAGGKKLKVARPLSVPGSPRDLRSNSTVYMTPGDLGTLQEVNNADDYFSLGVNPAADDDDDGPYADDS
Bait ABP1
  Ratio (Deletedscore / WTscore): 1.221

B4: YKL129C_1 (protein, UniProt P36006 1-1272, looked up)
Myosin-3: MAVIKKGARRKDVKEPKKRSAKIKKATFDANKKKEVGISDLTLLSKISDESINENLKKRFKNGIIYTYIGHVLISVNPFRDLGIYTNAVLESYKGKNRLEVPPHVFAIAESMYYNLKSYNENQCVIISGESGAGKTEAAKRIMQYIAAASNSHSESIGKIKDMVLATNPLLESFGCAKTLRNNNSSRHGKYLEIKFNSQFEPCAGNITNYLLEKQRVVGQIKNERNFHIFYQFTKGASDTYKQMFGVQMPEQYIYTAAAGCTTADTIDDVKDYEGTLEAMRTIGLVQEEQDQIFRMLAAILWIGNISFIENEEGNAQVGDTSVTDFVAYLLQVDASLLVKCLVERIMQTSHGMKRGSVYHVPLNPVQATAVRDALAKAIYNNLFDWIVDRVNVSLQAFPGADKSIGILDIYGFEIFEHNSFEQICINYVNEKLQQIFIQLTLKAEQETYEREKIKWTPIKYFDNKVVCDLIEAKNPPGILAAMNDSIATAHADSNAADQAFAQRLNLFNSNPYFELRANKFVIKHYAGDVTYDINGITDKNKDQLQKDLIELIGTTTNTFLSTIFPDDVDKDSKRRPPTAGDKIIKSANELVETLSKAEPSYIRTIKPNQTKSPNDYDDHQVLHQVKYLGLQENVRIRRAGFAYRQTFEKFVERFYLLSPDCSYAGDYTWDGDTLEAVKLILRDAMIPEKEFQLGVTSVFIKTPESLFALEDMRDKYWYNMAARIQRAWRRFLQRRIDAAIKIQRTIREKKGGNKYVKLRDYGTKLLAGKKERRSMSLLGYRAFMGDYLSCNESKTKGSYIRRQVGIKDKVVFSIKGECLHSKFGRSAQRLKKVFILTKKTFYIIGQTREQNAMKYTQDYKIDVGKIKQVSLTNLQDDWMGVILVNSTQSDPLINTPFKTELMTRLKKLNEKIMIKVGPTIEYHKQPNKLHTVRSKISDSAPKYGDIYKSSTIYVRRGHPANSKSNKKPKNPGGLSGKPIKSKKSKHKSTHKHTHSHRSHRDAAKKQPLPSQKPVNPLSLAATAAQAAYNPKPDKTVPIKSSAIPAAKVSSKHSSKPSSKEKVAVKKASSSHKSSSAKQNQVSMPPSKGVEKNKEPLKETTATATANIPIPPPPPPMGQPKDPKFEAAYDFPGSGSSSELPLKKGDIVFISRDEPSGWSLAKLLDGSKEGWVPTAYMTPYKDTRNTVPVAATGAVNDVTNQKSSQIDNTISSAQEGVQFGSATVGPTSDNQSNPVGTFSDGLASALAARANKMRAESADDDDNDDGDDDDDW
Bait BZZ1-1
  Ratio (Deletedscore / WTscore): 0.69
Bait PIN3
  Ratio (Deletedscore / WTscore): 0.7986

B5: YHR016C_1 (protein, UniProt P32793 1-468, looked up)
Protein YSC84: MGINNPIPRSLKSETKKAAKVLRSFVKPNQVFGADQVIPPYVLKRAKGLAIITVLKAGFLFSGRAGSGVIVARLKDGTWSAPSAIAMAGAGAGGMVGVELTDFVFILNSEEAVRSFSEFGTITLGGNVSVSAGPLGRSAEAAASASTGGVSAVFAYSKSKGLFAGVSVEGSAILERREANRKFYGDNCTSKMILSGRVKVPPAADPLLRILESRAFNFTRHDHDDNASGDDFYDDGQYSDNTSHYYDDIPDSFDSTDESSTRPNTRSSRRRGMSLGSRSRYDDDYDDDGYGRGRGYGDFDSEDEDYDYGRSPNRNSSRNRGPQIDRGTKPRANTRWEDDLYDRDTEYSRPNHSGRDYDNTRGNRRGYGRERGYSLGHGPTHPSNMSNVDDLSHKMSKTGLGNESTATNSATPTAVALYNFAGEQPGDLAFKKGDVITILKKSDSQNDWWTGRTNGKEGIFPANYVRVS
Bait HOF1
  Ratio (Deletedscore / WTscore): 0.9486
Bait MYO5
  Ratio (Deletedscore / WTscore): 0.6586
Bait RVS167
  Ratio (Deletedscore / WTscore): 0.5834

B6: YDL146W_1 (protein, UniProt Q12342 1-491, looked up)
Protein LDB17: MILDPLSPNIENHTQDEIIEFWEKTESIANIPKENLDESHVNSSLVAYLKFATDSYKVFINTDRDLYRMSLILLESSLFEFKKEFCLSKLQSLLNIDLLEMNMKFIIVYILLCEAKKNVYSLEIMLKFQGFTVFYNTLYTQFAYLSKYGKERTVASKHQYNSNNSSTGTSLDSLDRSLTDIDLGIIDEMKQISTVLMDLLFQIMKYCKCVIANLQIVDDFFVYYMMESMRSDTMDDMFNNAEFKLLLALNEQYMMFAKEYDIENKVYKYLINGSVSRCFTELLLLKFNRASDPPLQIMMCKIIYLILTPRGDYSPMNFFYTNDLRVLIDVLIRELQNISEDEEVLRNTLLRVLIPLLKNTQLSKTHYRKDDLNKLLNYLSTLDNICVDSPALHEHQVTVALSRKCLQQIPWLETPSTPSDGGSSVSSNNTSRNSSIVALGTPDNQNILARKGHLYSNRELDVSAESLTKRKAKAPPPPPPPPPSRKCGTPK
Bait BZZ1-1
  Ratio (Deletedscore / WTscore): 0.5572
Bait BZZ1-2
  Ratio (Deletedscore / WTscore): 0.7122
Bait LSB3
  Ratio (Deletedscore / WTscore): 0.6902

B7: YJR076C_1 (protein, UniProt P32458 2-415, looked up)
Cell division control protein …: SGIIDASSALRKRKHLKRGITFTVMIVGQSGSGRSTFINTLCGQQVVDTSTTILLPTDTSTEIDLQLREETVELEDDEGVKIQLNIIDTPGFGDSLDNSPSFEIISDYIRHQYDEILLEESRVRRNPRFKDGRVHCCLYLINPTGHGLKEIDVEFIRQLGSLVNIIPVISKSDSLTRDELKLNKKLIMEDIDRWNLPIYNFPFDEDEISDEDYETNMYLRTLLPFAIIGSNEVYEMGGDVGTIRGRKYPWGILDVEDSSISDFVILRNALLISHLHDLKNYTHEILYERYRTEALSGESVAAESIRPNLTKLNGSSSSSTTTRRNTNPFKQSNNINNDVLNPASDMHGQSTGENNETYMTREEQIRLEEERLKAFEERVQQELLLKRQELLQREKELREIEARLEKEAKIKQEE
Bait BEM1-2
  Ratio (Deletedscore / WTscore): 0.6782
Bait MYO3
  Ratio (Deletedscore / WTscore): 0.8182
Bait MYO5
  Ratio (Deletedscore / WTscore): 0.9436
Bait RVS167
  Ratio (Deletedscore / WTscore): 1.148

B8: YLR314C_1 (protein, UniProt P32457 2-520, looked up)
Cell division control protein …: SLKEEQVSIKQDPEQEERQHDQFNDVQIKQESQDHDGVDSQYTNGTQNDDSERFEAAESDVKVEPGLGMGITSSQSEKGQVLPDQPEIKFIRRQINGYVGFANLPKQWHRRSIKNGFSFNLLCVGPDGIGKTTLMKTLFNNDDIEANLVKDYEEELANDQEEEEGQGEGHENQSQEQRHKVKIKSYESVIEENGVKLNLNVIDTEGFGDFLNNDQKSWDPIIKEIDSRFDQYLDAENKINRHSINDKRIHACLYFIEPTGHYLKPLDLKFMQSVYEKCNLIPVIAKSDILTDEEILSFKKTIMNQLIQSNIELFKPPIYSNDDAENSHLSERLFSSLPYAVIGSNDIVENYSGNQVRGRSYPWGVIEVDNDNHSDFNLLKNLLIKQFMEELKERTSKILYENYRSSKLAKLGIKQDNSVFKEFDPISKQQEEKTLHEAKLAKLEIEMKTVFQQKVSEKEKKLQKSETELFARHKEMKEKLTKQLKALEDKKKQLELSINSASPNVNHSPVPTKKKGFLR
Bait BEM1-2
  Ratio (Deletedscore / WTscore): 0.9934
Bait NBP2
  Ratio (Deletedscore / WTscore): 0.9977

B9: YCR009C_1 (protein, UniProt P25343 1-265, looked up)
Reduced viability upon …: MSWEGFKKAINRAGHSVIIKNVDKTIDKEYDMEERRYKVLQRAGEALQKEAKGFLDSLRAVTASQTTIAEVISNLYDDSKYVAGGGYNVGNYYLQCVQDFDSETVKQLDGPLRETVLDPITKFSTYFKEIEEAIKKRDHKKQDFDAAKAKVRRLVDKPAKDASKLPRAEKELSLAKDIFENLNNQLKTELPQLVSLRVPYFDPSFEALIKIQLRFCTDGYTRLAQIQQYLDQQSRDDYANGLLDTKIEELLGQMTSLDICALGIK
Bait LSB1
  Ratio (Deletedscore / WTscore): 0.9386
Bait LSB3
  Ratio (Deletedscore / WTscore): 0.7612
Bait MYO3
  Ratio (Deletedscore / WTscore): 0.6894
Bait MYO5
  Ratio (Deletedscore / WTscore): 0.8072
